Laboratory results: publication PMC5472279, “Genetic, structural, and chemical insights into the dual function of GRASP55 in germ cell Golgi remodeling and JAM-C polarized localization during spermatogenesis” (PLoS Genetics, 2017)
Ends that are not written are not given here. * marks the point of attachment. Biotin = O=C1N[C@H]2[C@H](CS[C@H]2CCCCC(=O)*)N1

B1: Unlabeled (non-biotinylated) JAM-A carboxy-terminal 19-mer peptide (peptide)
peptide: SQPSTRSEGEFKQTSSFLV
notes: JAM-A, carboxy-terminal 19 amino acids; the homologous non-biotinylated form of the printed biotinylated peptide; source: synthetic peptide
B2: JAM-C peptide, carboxy-terminal 19-mer (JAM-C_P19) (peptide)
peptide: NYIRTSEEGDFRHKSSFVI
notes: Junctional Adhesion Molecule-C (JAM-C), mouse, encoded by Jam3, carboxy-terminal 19 amino acids; source: synthetic peptide (Covalab, France)
B3: JAM-B_P19, peptide corresponding to the C-terminal 19-mer of mouse JAM-B (unlabeled) (peptide)
peptide: SKVTTMSENDFKHTKSFII
notes: JAM-B, mouse, C-terminal 19-mer; the homologous non-biotinylated form of the printed biotinylated peptide; also called JAM-B peptide; source: synthetic peptide
B4: Biotinylated 19-mer peptide of the carboxy-terminal sequence of JAM-A (peptide)
peptide: Biotin-SQPSTRSEGEFKQTSSFLV
notes: JAM-A, carboxy-terminal 19 amino acids; source: synthetic peptide (Covalab, France)
B5: Biotinylated 19-mer peptide of the carboxy-terminal sequence of JAM-B (peptide)
peptide: Biotin-SKVTTMSENDFKHTKSFII
notes: JAM-B, mouse, carboxy-terminal 19 amino acids; source: synthetic peptide (Covalab, France)
B6: JAM-A peptide, carboxy-terminal 19-mer (peptide)
peptide: SQPSTRSEGEFKQTSSFLV
notes: Junctional Adhesion Molecule-A (JAM-A), carboxy-terminal 19 amino acids; source: synthetic peptide (Covalab, France)
B7: Biotinylated 19-mer peptide of the carboxy-terminal sequence of JAM-C (peptide)
peptide: Biotin-NYIRTSEEGDFRHKSSFVI
notes: JAM-C, mouse, carboxy-terminal 19 amino acids; source: synthetic peptide (Covalab, France)
B8: JAM-B peptide, carboxy-terminal 19-mer (JAM-B_P19) (peptide)
peptide: SKVTTMSENDFKHTKSFII
notes: Junctional Adhesion Molecule-B (JAM-B), mouse, carboxy-terminal 19 amino acids; source: synthetic peptide (Covalab, France)
B9: JAM-C_P19, peptide corresponding to the C-terminal 19-mer of mouse JAM-C (unlabeled) (peptide)
peptide: NYIRTSEEGDFRHKSSFVI
notes: JAM-C, mouse, C-terminal 19-mer; the homologous non-biotinylated form of the printed biotinylated peptide; also called JAM-C peptide; source: synthetic peptide

Key:
Settings in all cases: both partners purified
[1] = biological target: T1, GST-GRASP55 FL (mGRASP55 Full-length, aa 2-451) (mouse, UniProt Q99JX3 2-451); test: AlphaScreen or HTRF + ITC; the text names HTRF or ITC for the values without telling which; GST-GRASP55 FL with JAM peptides; HTRF: biotinylated peptide competed with unlabeled peptide, 0.05 M HEPES, 0.15 M NaCl, 0.25% BSA pH 7.3, 18 h, 4°C; ITC: peptide in the syringe, protein in the cell, 100 mM NaPO4 pH 7.5, 25°C
T1 construct: GRASP55, mouse, aa 2-451, called full-length (FL); Forward primers with and without a thrombin cleavage site were used; also called full-length GRASP55 protein; source: E. coli BL21 (DE3), purified (Glutathione sepharose 4B); not shown: GST, N-terminal, kept

[2] = biological target: T2, GST-GRASP55 FL (GST-tagged GRASP55 full-length, aa 2-451) (mouse, UniProt Q99JX3 2-451); test: ITC; GRASP55 protein in the cell (70-150 uM), JAM peptide in the syringe (800-2250 uM); 298 K (25 °C); 100 mM NaPO4 buffer pH 7.5; MicroCal ITC200; one-site fit
T2 construct: Gateway cloning into pDEST15; also called mGRASP55 Full-length (FL); Golgi reassembly stacking protein of 55 kDa; source: E. coli BL21 (DE3), purified (Glutathione sepharose 4B); not shown: GST, N-terminal, kept

[3] = biological target: His-GRASP55 PDZ12 (Histidine-tagged PDZ tandem of GRASP55, aa 2-208) (mouse, UniProt Q99JX3 2-208); test: as above
[4] = biological target: GRASP55 PDZ12, untagged PDZ tandem of GRASP55 (mouse, UniProt Q99JX3 2-208); test: as above
[5] = biological target: T1, GST-GRASP55 FL (mGRASP55 Full-length, …); test: AlphaScreen or HTRF; GST fusion protein, anti-GST antibody coupled to terbium cryptate (1 nM), streptavidin-d2 (1.25 nM), biotinylated peptide (6 nM), competed with non-biotinylated peptide or the compound Graspin; 0.05 M HEPES, 0.15 M NaCl, 0.25% BSA pH 7.3, 18 h, 4°C

Binder | Kd [1] | stoichiometry N [2] | Kd [3] | stoichiometry N [3] | binding result [5] | other results
B1 | 27 µM | – | – | – | – | –
B2 | – | 1 | 7.1 ± 0.1 µM | 1 | – | Kd [4]: 3.8 ± 0.1 µM; stoichiometry N [4]: 1.1
B3 | 4.9 µM | – | – | – | – | –
B4 | – | – | – | – | binds | –
B5 | – | – | – | – | binds | –
B6 | – | 0.8 | 14 ± 1 µM | 0.9 | – | –
B7 | – | – | – | – | binds | –
B8 | – | 0.9 | 1.2 ± 0.1 µM | 1.3 | – | –
B9 | 3.7 µM | – | – | – | – | –
